Source: patent US20100120171A1

What was measured:
[1] = molecular target: Standard VE-cadherin (standard solutions run with the Bender MedSystems BMS253 kit) (UniProt P33151); assay: Bender BMS253 ELISA kit; standard VE-cadherin at 1.25 ng/mL
[2] = molecular target: Standard VE-cadherin (standard solutions run with the Bender MedSystems BMS253 kit) (UniProt P33151); assay: Bender BMS253 ELISA kit; standard VE-cadherin at 0.16 ng/mL; second replicate
[3] = molecular target: Standard VE-cadherin (standard solutions run with the Bender MedSystems BMS253 kit) (UniProt P33151); assay: Bender BMS253 ELISA kit; standard VE-cadherin at 0.32 ng/mL
[4] = molecular target: Standard VE-cadherin (standard solutions run with the Bender MedSystems BMS253 kit) (UniProt P33151); assay: Bender BMS253 ELISA kit; standard VE-cadherin at 0.16 ng/mL; OD minus OD at 0 ng/mL
[5] = molecular target: Standard VE-cadherin (standard solutions run with the Bender MedSystems BMS253 kit) (UniProt P33151); assay: Bender BMS253 ELISA kit; standard VE-cadherin at 1.25 ng/mL; second replicate
[6] = molecular target: Standard VE-cadherin (standard solutions run with the Bender MedSystems BMS253 kit) (UniProt P33151); assay: Bender BMS253 ELISA kit; standard VE-cadherin at 0.63 ng/mL; second replicate
[7] = molecular target: Standard VE-cadherin (standard solutions run with the Bender MedSystems BMS253 kit) (UniProt P33151); assay: Bender BMS253 ELISA kit; standard VE-cadherin at 2.5 ng/mL; OD minus OD at 0 ng/mL
[8] = molecular target: Standard VE-cadherin (standard solutions run with the Bender MedSystems BMS253 kit) (UniProt P33151); assay: Bender BMS253 ELISA kit; standard VE-cadherin at 10 ng/mL; second replicate
[9] = molecular target: Standard VE-cadherin (standard solutions run with the Bender MedSystems BMS253 kit) (UniProt P33151); assay: Bender BMS253 ELISA kit; standard VE-cadherin at 2.5 ng/mL; second replicate
[10] = molecular target: Standard VE-cadherin (standard solutions run with the Bender MedSystems BMS253 kit) (UniProt P33151); assay: Bender BMS253 ELISA kit; standard VE-cadherin at 2.5 ng/mL
[11] = molecular target: Standard VE-cadherin (standard solutions run with the Bender MedSystems BMS253 kit) (UniProt P33151); assay: Bender BMS253 ELISA kit; standard VE-cadherin at 0.63 ng/mL; OD minus OD at 0 ng/mL
[12] = molecular target: Standard VE-cadherin (standard solutions run with the Bender MedSystems BMS253 kit) (UniProt P33151); assay: Bender BMS253 ELISA kit; standard VE-cadherin at 10 ng/mL; first replicate
[13] = molecular target: Standard VE-cadherin (standard solutions run with the Bender MedSystems BMS253 kit) (UniProt P33151); assay: Bender BMS253 ELISA kit; standard VE-cadherin at 1.25 ng/mL; first replicate
[14] = molecular target: Standard VE-cadherin (standard solutions run with the Bender MedSystems BMS253 kit) (UniProt P33151); assay: Bender BMS253 ELISA kit; standard VE-cadherin at 0.16 ng/mL
[15] = molecular target: Standard VE-cadherin (standard solutions run with the Bender MedSystems BMS253 kit) (UniProt P33151); assay: Bender BMS253 ELISA kit; standard VE-cadherin at 0.63 ng/mL; first replicate
[16] = molecular target: Standard VE-cadherin (standard solutions run with the Bender MedSystems BMS253 kit) (UniProt P33151); assay: Bender BMS253 ELISA kit; standard VE-cadherin at 10 ng/mL
[17] = molecular target: Standard VE-cadherin (standard solutions run with the Bender MedSystems BMS253 kit) (UniProt P33151); assay: Bender BMS253 ELISA kit; standard VE-cadherin at 5 ng/mL; OD minus OD at 0 ng/mL
[18] = molecular target: Standard VE-cadherin (standard solutions run with the Bender MedSystems BMS253 kit) (UniProt P33151); assay: Bender BMS253 ELISA kit; standard VE-cadherin at 0.63 ng/mL
[19] = molecular target: Standard VE-cadherin (standard solutions run with the Bender MedSystems BMS253 kit) (UniProt P33151); assay: Bender BMS253 ELISA kit; standard VE-cadherin at 5 ng/mL; first replicate
[20] = molecular target: Standard VE-cadherin (standard solutions run with the Bender MedSystems BMS253 kit) (UniProt P33151); assay: Bender BMS253 ELISA kit; standard VE-cadherin at 1.25 ng/mL; OD minus OD at 0 ng/mL
[21] = molecular target: Standard VE-cadherin (standard solutions run with the Bender MedSystems BMS253 kit) (UniProt P33151); assay: Bender BMS253 ELISA kit; standard VE-cadherin at 0.16 ng/mL; first replicate
[22] = molecular target: Standard VE-cadherin (standard solutions run with the Bender MedSystems BMS253 kit) (UniProt P33151); assay: Bender BMS253 ELISA kit; standard VE-cadherin at 10 ng/mL; OD minus OD at 0 ng/mL
[23] = molecular target: Standard VE-cadherin (standard solutions run with the Bender MedSystems BMS253 kit) (UniProt P33151); assay: Bender BMS253 ELISA kit; standard VE-cadherin at 0.32 ng/mL; first replicate
[24] = molecular target: Standard VE-cadherin (standard solutions run with the Bender MedSystems BMS253 kit) (UniProt P33151); assay: Bender BMS253 ELISA kit; standard VE-cadherin at 0.32 ng/mL; OD minus OD at 0 ng/mL
[25] = molecular target: Standard VE-cadherin (standard solutions run with the Bender MedSystems BMS253 kit) (UniProt P33151); assay: Bender BMS253 ELISA kit; standard VE-cadherin at 0.32 ng/mL; second replicate
[26] = molecular target: Standard VE-cadherin (standard solutions run with the Bender MedSystems BMS253 kit) (UniProt P33151); assay: Bender BMS253 ELISA kit; standard VE-cadherin at 5 ng/mL
[27] = molecular target: Standard VE-cadherin (standard solutions run with the Bender MedSystems BMS253 kit) (UniProt P33151); assay: Bender BMS253 ELISA kit; standard VE-cadherin at 5 ng/mL; second replicate
[28] = molecular target: Standard VE-cadherin (standard solutions run with the Bender MedSystems BMS253 kit) (UniProt P33151); assay: Bender BMS253 ELISA kit; standard VE-cadherin at 2.5 ng/mL; first replicate

Sequence of UniProt P33151 (P33151 48-593 limits assumed): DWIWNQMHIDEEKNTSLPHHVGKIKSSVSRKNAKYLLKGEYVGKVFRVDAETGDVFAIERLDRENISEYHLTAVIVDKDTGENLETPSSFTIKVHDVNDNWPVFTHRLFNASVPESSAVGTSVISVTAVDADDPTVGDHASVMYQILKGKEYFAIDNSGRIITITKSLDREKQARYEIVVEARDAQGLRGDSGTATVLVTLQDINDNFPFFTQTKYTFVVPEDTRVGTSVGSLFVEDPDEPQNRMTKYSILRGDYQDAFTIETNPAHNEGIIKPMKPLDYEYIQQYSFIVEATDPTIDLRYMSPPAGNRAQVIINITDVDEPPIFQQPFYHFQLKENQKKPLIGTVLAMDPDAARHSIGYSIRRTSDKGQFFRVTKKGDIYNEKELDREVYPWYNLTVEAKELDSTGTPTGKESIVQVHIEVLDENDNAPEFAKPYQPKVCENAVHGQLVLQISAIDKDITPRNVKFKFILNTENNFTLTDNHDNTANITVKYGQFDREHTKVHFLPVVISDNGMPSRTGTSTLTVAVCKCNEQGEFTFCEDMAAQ

mAb provided in the human soluble VE-cadherin ELISA kit (Bender MedSystems, reference BMS253) (antibody)
mean OD [1]: 0.413 OD | OD [2]: 0.162 OD | mean OD [3]: 0.22 OD | corr. mean (OD) [4]: 0.046 OD | OD [5]: 0.454 OD | OD [6]: 0.222 OD | corr. mean (OD) [7]: 0.508 OD | OD [8]: 2.85 OD | OD [9]: 0.621 OD | mean OD [10]: 0.616 OD | corr. mean (OD) [11]: 0.136 OD | OD [12]: 2.41 OD | OD [13]: 0.371 OD | mean OD [14]: 0.154 OD | OD [15]: 0.265 OD | mean OD [16]: 2.63 OD | corr. mean (OD) [17]: 1.06 OD | mean OD [18]: 0.244 OD | OD [19]: 1.29 OD | corr. mean (OD) [20]: 0.305 OD | OD [21]: 0.145 OD | corr. mean (OD) [22]: 2.52 OD | OD [23]: 0.258 OD | corr. mean (OD) [24]: 0.112 OD | OD [25]: 0.181 OD | mean OD [26]: 1.17 OD | OD [27]: 1.05 OD | OD [28]: 0.61 OD
